Laboratory results as given in the RNAGym collection of RNA variant scans (doi:10.7554/elife.80360).

B1: Hairpin Ribozyme (parent)
chain: GUCCUCUUUCACGUGCGCGUGAAAGAGAGAAGUGAACCAGAGAAACACACGUUGUGGUAUAUUACCUGGUA

Variants of: B1
Assay: self-cleavage, relative activity (ratio to wild type); higher = more cleavage; co-transcriptional

In order of rising self-cleavage:
1. U2C C37G  0.0267
2. A45G U67G  0.0311
3. A59U A61C  0.0374
4. G32C A49U  0.0382
5. C10A U67A  0.0418
6. U14C A31C  0.0434
7. A24C U63A  0.0496
8. A31U U33A  0.0513
9. A44U A47U  0.0528
10. U5A G32C  0.0597
11. U2A U67A  0.0652
12. G32A A61C  0.0657
13. G1U U9C  0.0677
14. G32U U62C  0.0761
15. A23C A64C  0.0802
16. A30G A64C  0.0804
17. U33C G69A  0.0835
18. A43C A64C  0.0846
19. A47U U67C  0.0849
20. C38A G42C  0.0881
21. A30C G57C  0.0882
22. A30G A49U  0.0894
23. A24G G29U  0.0932
24. C65G U67A  0.0982
25. C3G U53C  0.102
26. A36U G68A  0.106
27. G42U A47G  0.107
28. C38A G42U  0.112
29. C3G G56C  0.112
30. G25A C46U  0.116
31. G40A G56A  0.117
32. A28C A49C  0.119
33. U2A G40C  0.12
34. U33A U52A  0.122
35. U2A G51C  0.125
36. C16U A45U  0.128
37. A35G A64U  0.129
38. U7G C38A  0.129
39. C48A C50U  0.131
40. U9G G57A  0.132
41. A23U G25C  0.132
42. G32U G34A  0.133
43. G29C G40C  0.133
44. U62A U67C  0.134
45. A28C A44C  0.134
46. C18U G56A  0.135
47. G42A G54U  0.136
48. U33C C65G  0.138
49. G27A A44U  0.139
50. C50A C66A  0.145
51. A44G  0.146
52. C3A A44U  0.148
53. G57C C66A  0.15
54. A47C A61C  0.152
55. U9G U62G  0.154
56. C37U G56A  0.156
57. C48G C66U  0.156
58. G56C C66A  0.156
59. A30G A64U  0.159
60. G32C G54C  0.16
61. A45C U60G  0.165
62. U62G G69U  0.165
63. A11G G57C  0.169
64. G21C A49C  0.17
65. C38U C48U  0.174
66. A45G G57U  0.175
67. U62C A64G  0.18
68. U52A G57A  0.182
69. A47U U67G  0.185
70. A43C A71G  0.186
71. U5C G69U  0.186
72. A24C C66A  0.187
73. U2C G68C  0.187
74. A31G G42A  0.19
75. G40A G54A  0.19
76. G42A G56A  0.191
77. A31C U52C  0.196
78. U7A U63G  0.199
79. G57A C66U  0.2
80. A23U A30C  0.201
81. A26U G69A  0.203
82. C48A U60C  0.208
83. G54A U63A  0.209
84. G25U C65G  0.211
85. U20G A43C  0.214
86. G40U A45U  0.219
87. A43G C65U  0.224
88. C37G U55A  0.226
89. A24G U63A  0.231
90. A36U G42C  0.234
91. C50U U53G  0.242
92. C6U A59C  0.251
93. U2G U8C  0.255
94. G42U A44G  0.267
95. G51C U55G  0.268
96. U5G U67A  0.275
97. G15C G69U  0.276
98. U9G C66A  0.279
99. U7C C48U  0.279
100. C16U G68A  0.283
101. C12A A39G  0.285
102. A47C C50U  0.303
103. G1C U2G  0.306
104. U52C G69C  0.313
105. G27U U58C  0.318
106. G13A A39U  0.32
107. A31G U67G  0.337
108. U14C U55G  0.352
109. G17C A36U  0.356
110. C3G U9C  0.357
111. C10U A28U  0.357
112. U5G G51A  0.377
113. U9A C38U  0.388
114. C16U G69C  0.396
115. U52G G68A  0.407
116. G21C A28C  0.412
117. U58G C65U  0.412
118. C50A U55G  0.419
119. A35U U53G  0.429
120. C37A G69A  0.434
121. C10U U60G  0.435
122. U5C U53G  0.448
123. G34A A39C  0.456
124. G34C U62A  0.471
125. C12G G25U  0.472
126. C6A A24U  0.487
127. U8G C37U  0.487
128. A11C C38U  0.515
129. U8C C18G  0.528
130. U20C A36U  0.529
131. G34U C66G  0.548
132. C6A G17U  0.553
133. U63G A71C  0.565
134. G51A C66U  0.574
135. A24U A26C  0.575
136. U8G A24U  0.595
137. C3A C10U  0.595
138. U7G U58G  0.645
139. G13U A22G  0.659
140. G34A C65U  0.673
141. A26G U53G  0.682
142. U8A A71G  0.699
143. G34U G40U  0.7
144. C6G G15U  0.706
145. C18G G21C  0.706
146. U5C A22U  0.732
147. U8G U9A  0.734
148. C3U G34A  0.747
149. A11G C12U  0.778
150. U20C U58G  0.785
151. C3U A35C  0.802
152. C10U A41U  0.817
153. C6U A36G  0.834
154. A28C A35C  0.864
155. A22U  0.864
156. C12G C18U  0.889
157. G13U U60C  0.902
158. G15U C16U  0.937
159. G19U A23U  0.944
160. U5C G34C  1
161. U53C A71G  1.05
162. C6A G34C  1.08
163. U20C A71G  1.12
164. C12U G34C  1.14
165. G34C U60C  1.41
166. A26G A71C  1.55
167. U70C A71G  1.85
